The values that follow come from patent publication US20200407449A1 (PHARMABCINE, published 2020).

Experiment [1] has as its target T1, hVISTA-Fc (R&D systems. Cat. No. 7126-B7) (human, UniProt Q9H7M9 33-194).
T1 construct: Bought antigen; also called human VISTA-Fc; VISTA-FC Human
T1 sequence: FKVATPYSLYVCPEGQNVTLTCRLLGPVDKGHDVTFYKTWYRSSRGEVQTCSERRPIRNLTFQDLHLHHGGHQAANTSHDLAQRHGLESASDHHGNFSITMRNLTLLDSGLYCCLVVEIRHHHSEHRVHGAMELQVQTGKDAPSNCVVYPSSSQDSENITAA
Nature of the experiment: Octet (BLI), antibody immobilised on biosensor, antigen in solution. Here is the method: (§1) The binding ability of the screened antibody to the antigen was measured using an Octet (ForteBio). For this purpose, the antibody was immobilized on a biosensor, various concentrations of antigen were added to a 96-well plate, and then the binding ability was measured.

Experiment [2] concerns the target T1, hVISTA-Fc (R&D systems. Cat. No. …). Nature of the experiment: Octet (BLI), antibody as ligand on biosensor, VISTA-Fc as analyte. As for the experimental part: as §1
Octet was used to evaluate the binding strength of the optimized anti-VISTA antibody while excluding clones with low productivity therefrom, and the experiment was performed in the same manner as the method presented in Example 6 (Table 11).

The target is the same in experiment [3]. Nature of the experiment: dissociation rate constant of scFv in the screening of optimised clones; antigen not named.

B1: anti-VISTA antibody 2B7 (IgG form) (antibody, V domains shown)
VH: QVQLVQSGGGLVKPGGSLRLSCAASGFTFSGSAMHWVRQASGKGLEWVGRIRSKANSYATAYAASVKGRFTISRDDSKNTAYLQMNSLKTEDTAVYYCSRVNSGYYGPDYWGKGTLVTVSS
VL: not shown
With B1, in experiment [1], the Kd stood at 5.8 nM, the koff is 0.000142 s⁻¹ and the kon came to 24500 M⁻¹ s⁻¹.

B2: anti-VISTA antibody 1B8 (IgG form) (antibody, V domains shown)
VH: QMQLVQSGAEVKKPGSSVKVSCKASGGSSSNYAISWVRQAPGQGLEWMGGIIPIFGTTSYAQKFQGRVTITADGSMSTAYMELSSLRSEDTAVYYCAKGAIEPWPFYFDNWGQGTLVTVSS
VL: QLVLTQPRSVSGSPGQSVTISCTGTNSDVGAYNYLSWYQQLPGRAPKVIIYDVNKRPSGVPDRFSGSRSGKTASLTISGLQAEDEADYYCAAWDDSLNGLVFGGGTKLTVLG
notes: also called Anti VISTA 3.0(1B8); anti-VISTA mAb 1B8
In experiment [1], B2 displayed a Kd of 9.29 nM, a koff of 0.00103 s⁻¹ and a kon of 111000 M⁻¹ s⁻¹. In addition, in experiment [2], the Kd was 13.6 nM, the koff was found to be 0.00209 s⁻¹ and the kon turned out to be 154000 M⁻¹ s⁻¹.

B3: PMC-309.3.4SA (antibody, V domains shown)
VH: QVQLVQSGAEVKKPGSSVKVSCKASGGSSSNYAISWVRQAPGQGLEWMGGIIPIFGTTSYAQKFQGRVTITADKSTSTAYMELSSLRSEDTAVYYCAKGAIEPWPFYFDNWGQGTLVTVSS
VL: QSALTQPRSVSGSPGQSVTISCTGTNSDVGAYNYLSWYQQLPGRAPKVIIYDVNKRPSGVPDRFSGSRSGKTASLTISGLQAEDEADYYCAAWDDNLYGLVFGGGTKLTVL
notes: light chain SA; also called PMC-309.3.45A
In the case of B3, in experiment [2], the equilibrium dissociation constant (Kd) turned out to be 0.606 nM, the koff turned out to be 0.000134 s⁻¹ and the on-rate constant (kon) is 225000 M⁻¹ s⁻¹.

B4: Anti VISTA_V3_2 (IgG form) (antibody, V domains shown)
VH: QMQLVQSGAEVKKPGSSVKVSCKASGGSSSNYAISWVRQAPGQGLEWMGGIIPIFGTTSYAQKFQGRVTITADGSMSTAYMELSSLRSEDTAVYYCAKGAIEPWPFYFDNWGQGTLVTVSS
VL: QLVLTQPRSVSGSPGQSVTISCTGTNSDVGAYNYLSWYQQLPGRAPKVIIYDVNKRPSGVPDRFSGSRSGKTASLTISGLQAEDEADYYCAAWDDSLNDLVFGGGTKLTVLG
Take B4: in experiment [2], the Kd was found to be 12.8 nM, the koff stood at 0.00191 s⁻¹ and the kon is 149000 M⁻¹ s⁻¹.

B5: PMC-309.3.4w (antibody, V domains shown)
VH: QVQLVQSGAEVKKPGSSVKVSCKASGGSSSNYAISWVRQAPGQGLEWMGGIIPIFGTTSYAQKFQGRVTITADKSTSTAYMELSSLRSEDTAVYYCAKGAIEPWPFYFDNWGQGTLVTVSS
VL: QLVLTQPRSVSGSPGQSVTISCTGTNSDVGAYNYLSWYQQLPGRAPKVIIYDVNKRPSGVPDRFSGSRSGKTASLTISGLQAEDEADYYCAAWDDNLYGLVFGGGTKLTVLG
notes: Heavy chain G-H (framework substituted), wt light chain
Regarding B5, in experiment [2], the affinity, expressed as Kd, was 0.496 nM; the koff turned out to be 9.38e-05 s⁻¹; the kon is 189000 M⁻¹ s⁻¹.

B6: Anti VISTA_V3_1 (IgG form) (antibody, V domains shown)
VH: QMQLVQSGAEVKKPGSSVKVSCKASGGSSSNYAISWVRQAPGQGLEWMGGIIPIFGTTSYAQKFQGRVTITADGSMSTAYMELSSLRSEDTAVYYCAKGAIEPWPFYFDNWGQGTLVTVSS
VL: QLVLTQPRSVSGSPGQSVTISCTGTNSDVGAYNYLSWYQQLPGRAPKVIIYDVNKRPSGVPDRFSGSRSGKTASLTISGLQAEDEADYYCAAWDDSLYGLVFGGGTKLTVLG
In experiment [2], B6 showed an equilibrium dissociation constant (Kd) of 2.86 nM, a koff of 0.00015 s⁻¹ and a kon of 52500 M⁻¹ s⁻¹.

B7: PMC-309.3.3 (antibody, V domains shown)
VH: QMQLVQSGAEVKKPGSSVKVSCKASGGSSSNYAISWVRQAPGQGLEWMGGIIPIFGTTSYAQKFQGRVTITADGSMSTAYMELSSLRSEDTAVYYCAKGAIEPWPFYFDNWGQGTLVTVSS
VL: QLVLTQPRSVSGSPGQSVTISCTGTNSDVGAYNYLSWYQQLPGRAPKVIIYDVNKRPSGVPDRFSGSRSGKTASLTISGLQAEDEADYYCAAWDDNLYGLVFGGGTKLTVLG
In experiment [2], B7 registered a Kd of 0.516 nM, a koff of 9.56e-05 s⁻¹ and a kon of 185000 M⁻¹ s⁻¹.

B8: Anti VISTA_V3_4 (scFv phage clone) (scFv, V domains shown)
VH: QMQLVQSGAEVKKPGSSVKVSCKASGGSSSNYAISWVRQAPGQGLEWMGGIIPIFGTTSYAQKFQGRVTITADGSMSTAYMELSSLRSEDTAVYYCAKGAIEPWPFYFDNWGQGTLVTVSS
VL: QLVLTQPRSVSGSPGQSVTISCTGTNSDVGAYNYLSWYQQLPGRAPKVIIYDVNKRPSGVPDRFSGSRSGKTASLTISGLQAEDEADYYCAAWDDNSDFHVFGGGTKLTVLG
notes: Optimised 1B8 variant that retains the 1B8 heavy-chain variable region, measured as scFv
As to B8, the koff in experiment [3] stood at 0.00222 s⁻¹.

B9: Anti VISTA_V3_1 (scFv phage clone) (scFv, V domains shown)
VH: QMQLVQSGAEVKKPGSSVKVSCKASGGSSSNYAISWVRQAPGQGLEWMGGIIPIFGTTSYAQKFQGRVTITADGSMSTAYMELSSLRSEDTAVYYCAKGAIEPWPFYFDNWGQGTLVTVSS
VL: QLVLTQPRSVSGSPGQSVTISCTGTNSDVGAYNYLSWYQQLPGRAPKVIIYDVNKRPSGVPDRFSGSRSGKTASLTISGLQAEDEADYYCAAWDDSLYGLVFGGGTKLTVLG
notes: as for B8
B9: the koff in experiment [3] was determined as 0.000487 s⁻¹.

B10: Anti VISTA_B5 (scFv phage clone) (scFv, V domains shown)
VH: QMQLVQSGAEVKKPGSSVKVSCKASGGSSSNYAISWVRQAPGQGLEWMGGIIPIFGTTSYAQKFQGRVTITADGSMSTAYMELSSLRSEDTAVYYCAKGAIEPWPFYFDNWGQGTLVTVSS
VL: QLVLTQPRSVSGSPGQSVTISCTGTNSDVGAYNYLSWYQQLPGRAPKVIIYDVNKRPSGVPDRFSGSRSGKTASLTISGLQAEDEADYYCAAWDDDLNGLVFGGGTKLTVLG
notes: Optimised 1B8 light-chain CDR3 variant, measured as scFv
B10 registered a koff in experiment [3] of 0.000616 s⁻¹.

B11: Anti VISTA_H2 (scFv phage clone) (scFv, V domains shown)
VH: QMQLVQSGAEVKKPGSSVKVSCKASGGSSSNYAISWVRQAPGQGLEWMGGIIPIFGTTSYAQKFQGRVTITADGSMSTAYMELSSLRSEDTAVYYCAKGAIEPWPFYFDNWGQGTLVTVSS
VL: QLVLTQPRSVSGSPGQSVTISCTGTNSDVGAYNYLSWYQQLPGRAPKVIIYDVNKRPSGVPDRFSGSRSGKTASLTISGLQAEDEADYYCAAWDDNLNGLVFGGGTKLTVLG
notes: as for B8
For the molecule B11, in experiment [3], the dissociation rate constant (koff) came out at 0.000285 s⁻¹.

B12: Anti VISTA_V3_3 (scFv phage clone) (scFv, V domains shown)
VH: QMQLVQSGAEVKKPGSSVKVSCKASGGSSSNYAISWVRQAPGQGLEWMGGIIPIFGTTSYAQKFQGRVTITADGSMSTAYMELSSLRSEDTAVYYCAKGAIEPWPFYFDNWGQGTLVTVSS
VL: QLVLTQPRSVSGSPGQSVTISCTGTNSDVGAYNYLSWYQQLPGRAPKVIIYDVNKRPSGVPDRFSGSRSGKTASLTISGLQAEDEADYYCAAWDDSLNVLVFGGGTKLTVLG
notes: as for B8
With B12, the dissociation rate constant (koff) in experiment [3] was found to be 0.00127 s⁻¹.

B13: Anti VISTA_G1 (scFv phage clone) (scFv, V domains shown)
VH: QMQLVQSGAEVKKPGSSVKVSCKASGGSSSNYAISWVRQAPGQGLEWMGGIIPIFGTTSYAQKFQGRVTITADGSMSTAYMELSSLRSEDTAVYYCAKGAIEPWPFYFDNWGQGTLVTVSS
VL: QLVLTQPRSVSGSPGQSVTISCTGTNSDVGAYNYLSWYQQLPGRAPKVIIYDVNKRPSGVPDRFSGSRSGKTASLTISGLQAEDEADYYCAAWDDSLIGHVFGGGTKLTVLG
notes: as for B8
B13 showed a koff in experiment [3] of 0.000574 s⁻¹.

B14: Anti VISTA_V3_2 (scFv phage clone) (scFv, V domains shown)
VH: QMQLVQSGAEVKKPGSSVKVSCKASGGSSSNYAISWVRQAPGQGLEWMGGIIPIFGTTSYAQKFQGRVTITADGSMSTAYMELSSLRSEDTAVYYCAKGAIEPWPFYFDNWGQGTLVTVSS
VL: QLVLTQPRSVSGSPGQSVTISCTGTNSDVGAYNYLSWYQQLPGRAPKVIIYDVNKRPSGVPDRFSGSRSGKTASLTISGLQAEDEADYYCAAWDDSLNDLVFGGGTKLTVLG
notes: as for B8
Molecule B14 had a koff in experiment [3] of 0.00108 s⁻¹.
